Results on 1 molecule are retold here after patent US7750123B2.

Substrate in this assay: S protein of GD03T on pseudotyped HIV virus (SARS-CoV (GD03T0013 isolate))

B1: 80R IgG1 (antibody, V domains shown)
VH: EVQLVQSGGGVVQPGKSLRLSCAASGFAFSSYAMHWVRQAPGKGLEWVAVISYDGSNKYYADSVKGRFTISRDNSKNTLYLQMNSLRAEDTAVYYCARDRSYYLDYWGQGTLVTVSS
VL: ETTLTQSPATLSLSPGERATLSCRASQSVRSNLAWYQQKPGQAPRPLIYDASTRATGIPDRFSGSGSGTDFTLTISRLEPEDFAVYYCQQRSNWPPTFGQGTKVEVK
For B1, the inhibition of pseudoviral infection of ACE2-expressing 293T cells (luciferase) was over 50 µg/mL.
